EC50 data for two molecules are collected here from patent publication US20240400675A1 (published 2024).

Holding throughout (assay): flow cytometry, HEK293E cells
On the technique in general: In flow cytometry, cells or beads pass a laser one at a time.

For experiment [1], the target named is T1, human CLDN6 (UniProt P56747 1-220).
T1 chain: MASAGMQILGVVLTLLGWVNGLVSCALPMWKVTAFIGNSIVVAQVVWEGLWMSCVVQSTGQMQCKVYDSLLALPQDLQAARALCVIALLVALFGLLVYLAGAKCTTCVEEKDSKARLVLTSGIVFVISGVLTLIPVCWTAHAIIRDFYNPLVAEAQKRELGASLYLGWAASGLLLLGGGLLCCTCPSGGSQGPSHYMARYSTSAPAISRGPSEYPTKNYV

For experiment [2], the target named is T2, cyno CLDN6.
T2 chain: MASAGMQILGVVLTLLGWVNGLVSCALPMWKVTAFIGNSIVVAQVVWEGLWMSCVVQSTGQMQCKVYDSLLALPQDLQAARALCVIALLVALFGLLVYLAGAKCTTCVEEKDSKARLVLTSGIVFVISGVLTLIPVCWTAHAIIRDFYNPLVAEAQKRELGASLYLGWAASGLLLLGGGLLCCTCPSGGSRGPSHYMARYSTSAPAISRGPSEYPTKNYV

In experiment [3] the target is T3, mouse CLDN6 (mouse, UniProt Q9Z262 1-219).
T3 chain: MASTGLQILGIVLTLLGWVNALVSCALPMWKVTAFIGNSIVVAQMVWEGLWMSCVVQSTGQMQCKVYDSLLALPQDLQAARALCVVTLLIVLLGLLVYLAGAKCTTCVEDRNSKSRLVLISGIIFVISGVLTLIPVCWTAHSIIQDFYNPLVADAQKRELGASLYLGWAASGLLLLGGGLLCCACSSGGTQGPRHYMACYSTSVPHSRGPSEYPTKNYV

Experiment [4] concerns the target T1, human CLDN6.
Experiment [5] deals with T4, CLDN6 I143V isotype (UniProt P56747 1-220).
T4 chain: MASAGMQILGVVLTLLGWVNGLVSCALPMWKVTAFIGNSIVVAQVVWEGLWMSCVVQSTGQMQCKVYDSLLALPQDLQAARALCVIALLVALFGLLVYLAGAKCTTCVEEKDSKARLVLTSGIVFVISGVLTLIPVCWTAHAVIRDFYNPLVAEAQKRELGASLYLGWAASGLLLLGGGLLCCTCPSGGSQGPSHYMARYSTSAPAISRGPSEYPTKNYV

The target in experiment [6] is T5, human CLDN9 (UniProt O95484 1-217).
T5 chain: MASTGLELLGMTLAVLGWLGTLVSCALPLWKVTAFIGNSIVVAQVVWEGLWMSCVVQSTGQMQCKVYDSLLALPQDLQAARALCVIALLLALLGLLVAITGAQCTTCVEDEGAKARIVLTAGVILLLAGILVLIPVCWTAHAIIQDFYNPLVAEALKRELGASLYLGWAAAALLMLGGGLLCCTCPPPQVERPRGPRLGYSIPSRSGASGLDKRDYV

Read-outs that look alike come from different tables or passages of the source.

B1: XENP34637 (C6-30_H2L1 x CD3 bsAb in the 1+1 Fab-scFv-Fc format) (bispecific antibody)
heavy: EVQLVQSGAEVKKPGESLRISCKTSGYTFTEYTMHWVRQMPGKSLEWMGGIDPNNGNTHYNQKFQGHVTISVDKSISTAYLQWSSLKASDTAMYYCARIYYFGRLYFDFWGAGTLVTVSSASTKGPSVFPLAPSSKSTSGGTAALGCLVKDYFPEPVTVSWNSGALTSGVHTFPAVLQSSGLYSLSSVVTVPSSSLGTQTYICNVNHKPSDTKVDKKVEPKSCDKTHTCPPCPAPPVAGPSVFLFPPKPKDTLMISRTPEVTCVVVDVKHEDPEVKFNWYVDGVEVHNAKTKPREEEYNSTYRVVSVLTVLHQDWLNGKEYKCKVSNKALPAPIEKTISKAKGQPREPQVYTLPPSREEMTKNQVSLTCDVSGFYPSDIAVEWESDGQPENNYKTTPPVLDSDGSFFLYSKLTVDKSRWEQGDVFSCSVMHEALHNHYTQKSLSLSPGK
scFv-Fc: not shown
light: not shown
A word on the EC50: it is the concentration that produces a half-maximal response. Take B1: the EC50 is 2.38 µg/mL in experiment [1]; 3.19 µg/mL in experiment [2]; 6.71 µg/mL in experiment [3]; 20.6 µg/mL in experiment [4]; 12.9 µg/mL in experiment [5]; 137 µg/mL in experiment [6].

B2: XENP34638 (C6-30_H2L1 x CD3 bsAb in the 2+1 Fab2-scFv-Fc format) (bispecific antibody)
heavy 1: EVQLVQSGAEVKKPGESLRISCKTSGYTFTEYTMHWVRQMPGKSLEWMGGIDPNNGNTHYNQKFQGHVTISVDKSISTAYLQWSSLKASDTAMYYCARIYYFGRLYFDFWGAGTLVTVSSASTKGPSVFPLAPSSKSTSGGTAALGCLVKDYFPEPVTVSWNSGALTSGVHTFPAVLQSSGLYSLSSVVTVPSSSLGTQTYICNVNHKPSDTKVDKKVEPKSCDKTHTCPPCPAPPVAGPSVFLFPPKPKDTLMISRTPEVTCVVVDVKHEDPEVKFNWYVDGVEVHNAKTKPREEEYNSTYRVVSVLTVLHQDWLNGKEYKCKVSNKALPAPIEKTISKAKGQPREPQVYTLPPSREEMTKNQVSLTCDVSGFYPSDIAVEWESDGQPENNYKTTPPVLDSDGSFFLYSKLTVDKSRWEQGDVFSCSVMHEALHNHYTQKSLSLSPGK
heavy 2: EVQLVQSGAEVKKPGESLRISCKTSGYTFTEYTMHWVRQMPGKSLEWMGGIDPNNGNTHYNQKFQGHVTISVDKSISTAYLQWSSLKASDTAMYYCARIYYFGRLYFDFWGAGTLVTVSSASTKGPSVFPLAPSSKSTSGGTAALGCLVKDYFPEPVTVSWNSGALTSGVHTFPAVLQSSGLYSLSSVVTVPSSSLGTQTYICNVNHKPSNTKVDKKVEPKSCGGGGSGGGGSQAVVTQEPSLTVSPGGTVTLTCGSSTGAVTTSNYANWVQQKPGKSPRGLIGGTNKRAPGVPARFSGSLLGGKAALTISGAQPEDEADYYCALWYSNHWVFGGGTKLTVLGKPGSGKPGSGKPGSGKPGSEVQLVESGGGLVQPGGSLRLSCAASGFTFSTYAMNWVRQAPGKGLEWVGRIRSKYNNYATYYADSVKGRFTISRDDSKNTLYLQMNSLRAEDTAVYYCVRHGNFGDSYVSWFAYWGQGTLVTVSSGGGGSGGGGSKTHTCPPCPAPPVAGPSVFLFPPKPKDTLMISRTPEVTCVVVDVKHEDPEVKFNWYVDGVEVHNAKTKPREEQYNSTYRVVSVLTVLHQDWLNGKEYKCKVSNKALPAPIEKTISKAKGQPREPQVYTLPPSREQMTKNQVKLTCLVKGFYPSDIAVEWESNGQPENNYKTTPPVLDSDGSFFLYSKLTVDKSRWQQGNVFSCSVMHEALHNHYTQKSLSLSPGK
light: not shown
With B2, the 50% effective concentration (EC50) was found to be 0.244 µg/mL in experiment [1]; 0.267 µg/mL in experiment [2]; 0.588 µg/mL in experiment [3]; 0.435 µg/mL in experiment [4]; 0.2 µg/mL in experiment [5]; 11.2 µg/mL in experiment [6].
